In one series the target is T1, FZD5.
T1 chain: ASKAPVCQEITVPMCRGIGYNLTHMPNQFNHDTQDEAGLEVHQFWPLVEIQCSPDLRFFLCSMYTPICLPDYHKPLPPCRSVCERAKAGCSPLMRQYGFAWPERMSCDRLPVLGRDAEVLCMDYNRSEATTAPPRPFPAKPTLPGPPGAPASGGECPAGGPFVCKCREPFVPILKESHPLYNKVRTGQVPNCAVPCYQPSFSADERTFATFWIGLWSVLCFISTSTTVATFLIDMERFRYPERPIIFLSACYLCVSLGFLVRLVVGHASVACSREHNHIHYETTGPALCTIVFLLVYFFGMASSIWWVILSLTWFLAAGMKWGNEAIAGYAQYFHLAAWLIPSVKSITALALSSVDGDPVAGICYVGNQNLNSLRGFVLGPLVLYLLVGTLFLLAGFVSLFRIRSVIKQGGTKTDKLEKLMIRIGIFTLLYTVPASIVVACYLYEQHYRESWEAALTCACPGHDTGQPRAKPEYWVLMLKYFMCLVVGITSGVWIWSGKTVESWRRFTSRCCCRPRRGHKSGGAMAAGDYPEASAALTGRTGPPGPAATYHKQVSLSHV

Another series deals with T2, LRP6 (human, UniProt O75581 20-1613).
T2 construct: whole, on cells; The legend says 'endogenous FZD5 but not LRP6'
T2 sequence (O75581 20-1613): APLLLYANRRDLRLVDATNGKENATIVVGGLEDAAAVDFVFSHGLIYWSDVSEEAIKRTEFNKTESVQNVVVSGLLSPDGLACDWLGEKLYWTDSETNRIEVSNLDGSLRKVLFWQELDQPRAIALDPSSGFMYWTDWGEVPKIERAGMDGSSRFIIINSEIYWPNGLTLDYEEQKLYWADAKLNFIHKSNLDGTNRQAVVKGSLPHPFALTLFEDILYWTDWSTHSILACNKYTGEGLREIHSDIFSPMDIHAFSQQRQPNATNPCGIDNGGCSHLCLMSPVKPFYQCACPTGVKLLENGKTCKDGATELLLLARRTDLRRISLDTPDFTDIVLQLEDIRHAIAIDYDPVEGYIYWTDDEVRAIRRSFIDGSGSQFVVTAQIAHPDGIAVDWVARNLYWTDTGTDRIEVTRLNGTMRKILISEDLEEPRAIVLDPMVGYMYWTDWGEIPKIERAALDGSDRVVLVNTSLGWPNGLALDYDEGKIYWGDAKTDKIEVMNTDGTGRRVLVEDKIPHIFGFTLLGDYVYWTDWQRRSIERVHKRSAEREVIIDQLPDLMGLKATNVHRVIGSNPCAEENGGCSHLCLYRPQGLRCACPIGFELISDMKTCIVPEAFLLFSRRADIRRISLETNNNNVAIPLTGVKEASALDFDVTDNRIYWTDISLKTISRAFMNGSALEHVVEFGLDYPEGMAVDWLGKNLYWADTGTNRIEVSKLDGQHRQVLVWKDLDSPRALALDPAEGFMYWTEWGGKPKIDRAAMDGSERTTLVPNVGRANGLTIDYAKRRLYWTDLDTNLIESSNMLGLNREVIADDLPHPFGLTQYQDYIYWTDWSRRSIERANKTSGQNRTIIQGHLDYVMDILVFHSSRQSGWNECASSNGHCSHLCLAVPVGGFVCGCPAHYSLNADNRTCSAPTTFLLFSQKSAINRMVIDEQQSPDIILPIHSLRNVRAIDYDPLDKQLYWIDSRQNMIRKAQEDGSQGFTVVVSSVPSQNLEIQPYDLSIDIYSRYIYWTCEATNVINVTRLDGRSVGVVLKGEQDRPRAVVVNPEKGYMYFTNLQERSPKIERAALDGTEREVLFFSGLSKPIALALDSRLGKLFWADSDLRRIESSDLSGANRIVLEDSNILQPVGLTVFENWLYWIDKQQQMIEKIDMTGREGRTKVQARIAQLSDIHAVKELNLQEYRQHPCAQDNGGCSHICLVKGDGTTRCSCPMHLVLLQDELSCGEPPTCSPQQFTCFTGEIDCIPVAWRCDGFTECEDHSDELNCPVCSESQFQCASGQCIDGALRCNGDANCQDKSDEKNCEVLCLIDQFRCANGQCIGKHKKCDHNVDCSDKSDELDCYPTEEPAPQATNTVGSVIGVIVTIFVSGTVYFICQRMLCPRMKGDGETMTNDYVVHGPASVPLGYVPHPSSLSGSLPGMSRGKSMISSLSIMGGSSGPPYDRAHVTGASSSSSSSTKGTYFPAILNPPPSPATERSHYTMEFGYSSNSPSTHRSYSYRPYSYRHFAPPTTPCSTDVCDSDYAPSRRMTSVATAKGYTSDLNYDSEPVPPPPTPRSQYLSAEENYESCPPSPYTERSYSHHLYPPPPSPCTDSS
Description: co-IP, immunoblot (FIG. 3F).

Another series deals with T3, USP8N (UniProt P40818 1-714, limits assumed).
T3 construct: domain: USP8 N terminus; also called USP8 N terminus; N-terminal half of USP8
T3 sequence (looked up): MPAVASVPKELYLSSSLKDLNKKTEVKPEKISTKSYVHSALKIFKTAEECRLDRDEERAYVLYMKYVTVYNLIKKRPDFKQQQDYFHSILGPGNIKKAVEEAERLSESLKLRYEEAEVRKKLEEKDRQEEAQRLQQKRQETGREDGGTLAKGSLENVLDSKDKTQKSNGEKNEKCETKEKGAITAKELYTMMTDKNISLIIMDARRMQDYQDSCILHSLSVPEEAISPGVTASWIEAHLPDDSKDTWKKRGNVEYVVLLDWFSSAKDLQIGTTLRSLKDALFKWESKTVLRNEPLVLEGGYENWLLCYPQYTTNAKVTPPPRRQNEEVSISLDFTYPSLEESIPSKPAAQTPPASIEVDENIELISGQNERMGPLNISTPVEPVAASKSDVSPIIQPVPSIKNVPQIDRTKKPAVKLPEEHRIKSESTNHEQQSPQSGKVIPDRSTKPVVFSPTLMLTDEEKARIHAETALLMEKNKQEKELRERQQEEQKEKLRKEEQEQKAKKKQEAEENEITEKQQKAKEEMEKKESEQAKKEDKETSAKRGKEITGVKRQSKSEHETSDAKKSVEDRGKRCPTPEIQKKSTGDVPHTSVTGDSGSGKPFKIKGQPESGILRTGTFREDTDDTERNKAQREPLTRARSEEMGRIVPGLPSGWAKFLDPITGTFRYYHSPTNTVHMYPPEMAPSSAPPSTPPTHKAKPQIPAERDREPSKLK
As to the kind of experiment: co-IP, immunoblot (FIG. 5C). Background: In western blotting, separated proteins are transferred to a membrane and probed.

B1: USP8C (protein)
chain: RSYSSPDITQAIQEEEKRKPTVTPTVNRENKPTCYPKAEISRLSASQIRNLNPVFGGSGPALTGLRNLGNTCYMNSILQCLCNAPHLADYFNRNCYQDDINRSNLLGHKGEVAEEFGIIMKALWTGQYRYISPKDFKITIGKINDQFAGYSQQDSQELLLFLMDGLHEDLNKADNRKRYKEENNDHLDDFKAAEHAWQKHKQLNESIIVALFQGQFKSTVQCLTCHKKSRTFEAFMYLSLPLASTSKCTLQDCLRLFSKEEKLTDNNRFYCSHCRARRDSLKKIEIWKLPPVLLVHLKRFSYDGRWKQKLQTSVDFPLENLDLSQYVIGPKNNLKKYNLFSVSNHYGGLDGGHYTAYCKNAARQRWFKFDDHEVSDISVSSVKSSAAYILFYTSLGPRVTDVAT
Take B1: the “deubiquitination (ubiquitylation assay)” value in the series with SMO was “USP8C promoted deubiquitination of both FZD5 and SMO”; in the series with FZD5, “USP8C promoted deubiquitination of both FZD5 and SMO”.

B2: TMEM79-Flag (other)
chain: MTEPETLALLDMKEPETPEKSPPQALVLQSEEEGGTESPGTESLRVGSSVGSPIVREGPEDGPDSTISEAATLPWGTDPHPSAPLPDPPGWRDIEPEPLESEAPTKSEEPFKEDANLLPEKTVRAFVPIDLQCIERKPQEERILHRDAGPGELRNFLPARLSHPEPPERKWAEAVVRPPGRSCGGCGSCGGREALRAVASVVAALIFFPCLLYGAYAFLPFDAPRLPTMSSRLVYTLRCGVFATFPIVLGLLVYGLSLLCFSALRPFGEPRREVEIHRQYVAQSVQLFILYFFNLAVLSTYLPQDTLKLLPLLTGLFAISRLIYWLTFAVGRSFRGFGYGLTFLPLLAMLVWNLYYMFVVEPERMLTASESRLDYPDHARSVSDYRPRSWG
notes: Expressed in HEK293T cells; co-IP from lysates; not shown: Flag tag at the C-terminus
B2: in the series with LRP6, the binding result is recorded as “no binding”.

B3: TMEM79 (other)
chain: B2 chain
notes: It was expressed in HEK293T cells and tested by co-IP from lysates; also called Mattrin; full length TMEM79; not shown: Myc or Flag tag or both at the C-terminus
Regarding B3, the binding result in the series with USP8N was “no binding”.

For the origin of these results see patent publication US20220033904A1 (CHILDREN S MEDICAL CENTER, published 2022).
